The target in assay [1] is T1, SARS-CoV-2 Wuhan-Hu-1 RBD (SARS-CoV-2 Wuhan-Hu-1, UniProt P0DTC2). The assay is described as follows: BLI. The conditions noted are these: both partners purified.
Assay [2] addresses T1, SARS-CoV-2 Wuhan-Hu-1 RBD. Kind of assay: ELISA. As to conditions: both partners purified.

Positions count from the first letter of the chain named.

B1: V028 (antibody, V domains shown)
VH: QVQLVESGGGVVQPGRSLRLSCAASGFTFSSYGMHWVRQAPGKGLEWVAVVSFDGSDKYYADSVKGRFTISRDNSKNTLYLQMNSLRAEDTALYYCAKGGYSYAYPRYYFDYWGQGTLVTVSS
VL: DIQMTQSPSSLSASVGDRVTITCQASQDISNYLNWYQQKPGKAPKLLIYDASNLETGVPSRFSGSGSGTDFTFTISSLQPEDIATYYCQQHDNLPITFGQGTRLEIK
notes: IgG; donor BRA14; source: recombinant monoclonal IgG, produced and purified as previously described
In assay [1], B1 returned a Kd of 19.8 nM.

B2: V031 (antibody, V domains shown)
VH: B1 VH with V51I, F53Y, D57N, T69A, I70F, L93V
VL: B1 VL
notes: as for B1
For the molecule B2, binding in assay [1] was characterised by a dissociation constant (Kd) of 9.39 nM.

B3: V047 (antibody, V domains shown)
VH: EVQLVESGGGLVQPGGSLRLSCAASGFTFSSYWMSWVRQAPGKGLEWVANIKQDGSEKYYVDSVKGRFTISRDNAKNSLYLQVNSLRAEDTAVYYCARGQSRQYSSSWYGPAPVVDYFDYWGQGTLVTVSS
VL: QSVLTQPPSASGTPGQRVTISCSGSSSNFGSNYVYWYQQLPGTAPKLLIYRNKQRPSGVPDRFSGSKSGTSASLAISGLRSEDEADYYCAAWDDSLSVLWVFGGGTKLTVL
notes: IgG; donor BRA15
B3: in assay [1], the binding result was “no binding (tested: 100 µg/ml RBD)”.

B4: V022 (antibody, V domains shown)
VH: EVQLVESGGGLVKPGGSLRLSCAASGFTFSSYSMNWVRQAPGKGLEWVSSISSTNNYIYNADSVKGRFTISRDNAKNSLYLQMNSLRAEDTAVYYCARDPAGRYSYGLYYFYYMDVWGKGTTVTVSS
VL: QSALTQPASVSGSPGQSITISCTGTSSDVGGYNYVSWYQQRPGKAPKLMIYDVSNRPSGVSDRFSGSKSGNTASLTISGLQAEDEADYYCTSYTSSSSLYVFGTGTKVTVL
notes: IgG; donor BRA13; source: recombinant monoclonal IgG, produced and purified as previously described
B4 yielded an equilibrium dissociation constant (Kd) in assay [1] of 13 nM.

B5: V003 (antibody, V domains shown)
VH: EVQLVQSGAEVKKPGESLKISCLGSGYSFTSYWIGWVRQMPGKGLEWMGIIFPADSDTRYSPSFQGQVIISADKSISTAYLQWSSLKASDTAMYYCARLREFGDYYYYGMDVWGQGTTVTVSS
VL: DIQLTQSPSSLSASVGDRVTITCRASQGISSYLAWYQQKPGKAPKLLIYAASTLQSGVPSRFSGSGSGTDFTLTISSLQPEDFATYYCQQLNSYPDFGQGTKLEIK
notes: as for B4
Turning to B5, in assay [1], the Kd is 2980 nM.

B6: V052 (antibody, V domains shown)
VH: EVQLVESGGGLVQPGGSLRLSCAASGFTVSSKYMNWVRQAPGKGLEWVSVIYIGGSTDYADSVKGRFTISRDNSKNTLYLQMNSLRVEDTAVYYCARDGWDYELVFWGQGTLVTVSS
VL: DIQMTQSPSSLSASVGDRVTITCRASQGIRNDLGWYQQKPGKAPKRLIYAASSLQSGVPSRFSGSGSGTEFTLTISSLQPEDFATYYCLQHNSYPRWTFGQGTKVEIK
notes: IgG; donor BRA15
As to B6, the binding result in assay [1] is recorded as “no binding (tested: 100 µg/ml RBD)”.

B7: V021 (antibody, V domains shown)
VH: QVQLQESGPGLVKPSQTLSLTCTVSGGSISSGSYYWSWIRQPVGKGLEWIGRIYTSGSTNYNPSLKSRVTISVDTSKNQFSLELSSVTAADRAVYYCARESSPASIPVRGVIWWFDPWGQGTLVTVSS
VL: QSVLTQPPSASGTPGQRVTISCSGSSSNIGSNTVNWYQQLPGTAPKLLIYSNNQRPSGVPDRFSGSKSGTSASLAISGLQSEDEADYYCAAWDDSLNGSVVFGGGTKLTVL
notes: IgG; donor BRA13
Take B7: the binding result in assay [2] is on record as “no binding”.

B8: V065 (antibody, V domains shown)
VH: QVQLVQSGAEVKKPGASVKVSCKASGYTFTSYGISWVRQAPGQGLEWMGWINTDNGNTKNAQKVQGRVTMTTDTSTSTAYMELRSLRSDDTAVYYCARGGTVGAPPIEYWGQGTLVTVSS
VL: QSALTQPASVSGSPGQSITFSCTGTSSDVGGYNYVSWYQQYPGKAPKLLIYDVTNRPSGVSDRFSGSKSGNTASLTIFGLQAEDEADYYCSSFTSSNTRVFGTGTKVTVL
notes: IgG; donor BRA15
Regarding B8, the binding result in assay [1] is reported as “no binding (tested: 100 µg/ml RBD)”.

B9: V020 (antibody, V domains shown)
VH: QVQLVESGGGVVQPGRSLRLSCAASGFTFSSYGMHWVRQAPGKGLEWVAVISYDGSNKYYADSVKGRFTISRDNSKNTLYLQMNSLRAEDTAVYYCAKGGWFGELLRYFDYWGQGTLVTVSS
VL: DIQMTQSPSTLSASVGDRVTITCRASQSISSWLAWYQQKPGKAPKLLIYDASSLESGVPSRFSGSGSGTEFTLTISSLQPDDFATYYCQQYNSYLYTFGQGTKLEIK
notes: as for B4
In the case of B9, in assay [1], binding was characterised by a dissociation constant (Kd) of 77.3 nM.

B10: V026 (antibody, V domains shown)
VH: B9 VH with A24V, D54E, F102Y, E104S, L105P, L106T, R107Y
VL: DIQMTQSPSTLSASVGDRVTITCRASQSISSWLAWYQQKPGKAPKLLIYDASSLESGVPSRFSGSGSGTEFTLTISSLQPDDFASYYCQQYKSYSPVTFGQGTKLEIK
notes: as for B4
In turn, B10 gave a Kd in assay [1] of 10.7 nM.

B11: V019 (antibody, V domains shown)
VH: QVQLVQSGAEVKKPGSSVKVSCKASGGTFSTYTFSWVRQAPGQGLEWMGRIIPILGIANYAQKFQGRITITADKSTSTAYMELSSLRSEDTAVYYCAWGSYSYGYFVDIWGQGTMVTVSS
VL: DIVMTQTLLSLSVTPGQPASISCKSSQSLLHSDGKTYLYWYLQKPGQSPQLLIYEVSSRFSGVPDRFSGSGSGTDFTLKISRVEAEDVGVYYCMQGIQFHWTFGQGTKLEIK
notes: as for B4
On to B11, for which the Kd in assay [1] worked out at 3.84 nM.

B12: V025 (antibody, V domains shown)
VH: QVQLVQSGAEVKKPGASVKVSCKASGYTFTSYGISWVRQAPGQGLEWMGWISVYNGKTNYAQKLQGRVTMTTDTSTSTAYMELRSLISDDTAVYYCARADRYNWDYGSSWGQGTLVTVSS
VL: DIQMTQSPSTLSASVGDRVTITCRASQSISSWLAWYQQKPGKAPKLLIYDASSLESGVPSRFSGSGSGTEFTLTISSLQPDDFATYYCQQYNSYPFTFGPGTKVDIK
notes: as for B4
In turn, B12 displayed a Kd in assay [1] of 1.93 nM.

For orientation: Kd means the equilibrium constant for the complex coming apart. Lower therefore signals higher affinity.

The values above are taken from publication PMC9270183 (The Journal of Experimental Medicine, 2022).
